Reference: patent US20220289837A1 (VIB VZW, published 2022)
Each block holds one binder with its values, some of them ahead of it.

Tests used:
[1] = biological target: T1, 2PT-NBD1 (human CFTR nucleotide-binding domain 1, residues 387-646, with S492P, A534P, I539T) (human, UniProt P13569 388-646, biotinylated for the ELISA (sites not given)); assay: ITC, nanobody titrated into 2PT-NBD1 at 20 °C, one-site model
T1 construct: N-terminal His6-SUMO tag removed with Ulp1; In the T2a-T4 and T27 crystals the domain was cut by papain or subtilisin
Description: (§1) Isothermal titration calorimetry (ITC) was used to characterize the thermodynamic parameters of the binding (FIG. 1e and FIG. 9). […] These KD values are similar to those measured for other in vivo matured camelid heavy-chain antibodies interacting with their ligands^{[20]}. The thermodynamic parameters of the interaction of nanobodies with 2PT-NBD1 were determined based on these ITC measurements (FIG. 1e and FIG. 9).
(§2) Interactions between nanobodies and 2PT-NBD1 was carried out on NanoITC system (TA Instruments) in 0.165 ml cells at 20° C., 300 rpm syringe stirring. Proteins were extensively dialyzed in 20 mM Hepes buffer pH 7.5, 150 mM NaCl, 10% (w/v) glycerol, 10% (w/v) ethylene glycol, 2 mM ATP and 3 mM MgCl₂ for 16 h at 4° C. Heat of dilution from control experiments of each nanobody titrated into buffer was subtracted from the titration into 2PT-NBD1. Data were integrated analyzed with Origin 7.0 software (Origin Lab Corp.).

[2] = biological target: T2, Purified human wt-CFTR (His10-SUMO*-CFTRFLAG-EGFP), PKA phosphorylated (human, UniProt P13569 1-1480, PKA phosphorylated (sites not given)); assay: ELISA, purified wt-CFTR immobilised on nickel-coated plate, nanobody titrated
T2 construct: Expressed in HEK293 cell line D165, purified on NiNTA in DMNG detergent; used for the full-length CFTR ELISA and the ATPase assays; also called FL-CFTR; full-length CFTR; not shown: N-terminal His10-SUMO* tag; FLAG tag and enhanced green fluorescent protein (EGFP)
Source text: Quantification of at least 3 independent experiments (±SEM). (g) Immunoblot of CFTR from solubilized BHK-21 cells pulled-down with His-tagged nanobodies, including a non-CFTR nanobody as a control. Eluted nanobodies-CFTR complexes were separated by SDS-PAGE and presence of CFTR was detected with mAb 596 antibody after immunoblotting. Arrows indicate the mature (band C) and immature (band B) forms of CFTR. Representative of at least 3 independent experiments. (FIG. 4H) Flow cytometry analysis of nanobodies T2a, T8 and G3a on BHK-21 cells expressing 2PT-F508del showing increased labelling for T2a and G3a, but not T8. (FIG. 4I) Quantification of data illustrated in […]. Average of 3 independent experiments (±SEM).
Strep-Tactin XT coated microplate (iba Life Science) was coated overnight at 4° C. with Twin-Strep-tagged nanobodies (5 μg/ml). […] CFTR binding was detected with monoclonal antibodies L12B4, MM13, 154, 660, 570, 596 specific to CFTR obtained from the CFTR Antibody Distribution Program (http://cftrantibodies.web.unc.edu/available-antibodies)46 and then anti-mouse-HRP antibody (Millipore, catalogue number: AP308P, 0.5 μg/ml) for 1 h 30 min at 4° C. […] Nanobody binding was detected with Myc-tag specific antibody (Sigma, catalogue number: C3956, 0.5 μg/ml) and then anti-rabbit-HRP antibody (Cell Signaling, catalogue number: 7074S, 1:1000 dilution) for 1 h 30 min at 4° C. […]

[3] = biological target: T1, 2PT-NBD1 (human CFTR nucleotide-binding …); assay: isothermal titration calorimetry, nanobody titrated into 2PT-NBD1 at 20 °C, one-site model
Description: as §1, §2

T1 sequence (P13569 388-646 V470M/S492P/A534P/I539T limits assumed): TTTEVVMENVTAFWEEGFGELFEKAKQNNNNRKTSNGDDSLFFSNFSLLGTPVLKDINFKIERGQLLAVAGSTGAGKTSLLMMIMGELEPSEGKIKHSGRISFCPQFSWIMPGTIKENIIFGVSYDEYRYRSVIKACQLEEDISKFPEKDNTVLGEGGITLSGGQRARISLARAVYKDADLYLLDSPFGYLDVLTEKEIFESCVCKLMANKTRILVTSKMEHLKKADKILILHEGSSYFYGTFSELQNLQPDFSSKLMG
T2 sequence (P13569 whole entry): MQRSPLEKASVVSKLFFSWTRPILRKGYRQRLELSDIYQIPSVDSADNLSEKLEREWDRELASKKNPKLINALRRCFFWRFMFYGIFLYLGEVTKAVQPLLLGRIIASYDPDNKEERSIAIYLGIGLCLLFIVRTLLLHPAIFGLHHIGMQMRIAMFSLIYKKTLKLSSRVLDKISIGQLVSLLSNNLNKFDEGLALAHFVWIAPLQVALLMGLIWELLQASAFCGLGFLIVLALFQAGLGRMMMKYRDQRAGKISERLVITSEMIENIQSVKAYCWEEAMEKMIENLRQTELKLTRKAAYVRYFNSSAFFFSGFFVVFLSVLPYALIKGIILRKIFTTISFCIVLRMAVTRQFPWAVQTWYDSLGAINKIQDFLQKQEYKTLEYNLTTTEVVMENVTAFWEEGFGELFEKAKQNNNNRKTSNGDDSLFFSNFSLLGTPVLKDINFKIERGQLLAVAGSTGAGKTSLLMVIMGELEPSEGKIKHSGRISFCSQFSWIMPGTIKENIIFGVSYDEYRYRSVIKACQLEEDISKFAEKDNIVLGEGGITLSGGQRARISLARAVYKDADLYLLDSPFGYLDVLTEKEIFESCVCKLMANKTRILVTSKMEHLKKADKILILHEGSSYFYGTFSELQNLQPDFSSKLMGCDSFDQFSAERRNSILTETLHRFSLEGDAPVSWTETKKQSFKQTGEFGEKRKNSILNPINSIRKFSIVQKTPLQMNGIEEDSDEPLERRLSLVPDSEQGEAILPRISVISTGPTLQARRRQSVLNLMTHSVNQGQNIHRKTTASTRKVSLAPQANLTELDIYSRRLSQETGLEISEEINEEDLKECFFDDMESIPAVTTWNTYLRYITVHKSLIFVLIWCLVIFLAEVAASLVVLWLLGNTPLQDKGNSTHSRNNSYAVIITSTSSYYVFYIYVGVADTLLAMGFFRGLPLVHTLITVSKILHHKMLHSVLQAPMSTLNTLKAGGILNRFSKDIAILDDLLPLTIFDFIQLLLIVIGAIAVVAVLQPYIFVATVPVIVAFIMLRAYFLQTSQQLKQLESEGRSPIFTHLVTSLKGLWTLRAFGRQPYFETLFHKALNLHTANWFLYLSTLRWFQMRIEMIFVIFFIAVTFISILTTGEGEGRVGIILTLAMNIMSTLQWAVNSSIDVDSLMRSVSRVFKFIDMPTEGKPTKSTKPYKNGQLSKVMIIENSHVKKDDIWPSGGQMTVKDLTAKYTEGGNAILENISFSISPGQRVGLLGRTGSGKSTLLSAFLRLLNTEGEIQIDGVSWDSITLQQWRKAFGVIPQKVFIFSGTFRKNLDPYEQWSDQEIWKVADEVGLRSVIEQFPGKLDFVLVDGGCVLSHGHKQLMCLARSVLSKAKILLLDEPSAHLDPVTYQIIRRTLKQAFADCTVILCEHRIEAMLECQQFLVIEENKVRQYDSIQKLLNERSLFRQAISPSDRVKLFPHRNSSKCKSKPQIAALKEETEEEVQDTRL

- ΔG [1]: -9.94 kcal/mol
- ΔH [1]: -15.5 kcal/mol
- EC50 (read off the curve) [2]: ~300 nM
- Kd [3]: 39 nM
B1: Nanobody T8 (VHH, not shown: small tags and cut ends)
VHH: QVQLQESGGGLVQPGGSLRLSCAASGSTSSINAMGWYRQAPGKQREPVAISSSGGDTRYAEPVKGRFTISRDNAQNKVYLQMNSLKPEDTAVYYCWLNWGRTSVNSWGQGTQVTVSS
notes: Llama nanobody; also called Nb T8; T8 Nb

- ΔG [1]: -9.7 kcal/mol
- ΔH [1]: -13.8 kcal/mol
- EC50 (read off the curve) [2]: ~200 nM
- Kd [3]: 54 nM
B2: Nanobody T2a (VHH, not shown: small tags and cut ends)
VHH: QVQLQESGGGLVQAGGSLRLSCAASGSIFRIDAMGWYRQAPGKQRELVAHSTSGGSTDYADSVKGRFTISRDNAKNTVYLQMNSLKPEDTAVYYCNADVRTRWYASNNYWGQGTQVTVSS
notes: Llama nanobody; also called Nb T2a; T2a Nb
